Experimental findings from patent US20140302123A1 are described below.

By Kd is commonly meant the equilibrium constant for the complex coming apart. A low value points to a tighter complex.

Test [1] addresses T1, PTPN4-PDZ (residues G499-N604) (human), P29074.
T1 chain: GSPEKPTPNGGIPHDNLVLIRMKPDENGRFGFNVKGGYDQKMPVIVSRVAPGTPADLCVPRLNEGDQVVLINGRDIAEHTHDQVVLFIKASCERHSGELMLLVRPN
As to the kind of experiment: NMR titration (rounded value in the text).

Test [2] deals with T1, PTPN4-PDZ (residues G499-N604) (human), …. As to the kind of experiment: NMR titration, 15N-labeled PTPN4-PDZ with unlabeled peptide.

For the molecule SWESHKSGGETRL (modifications not checked) [Cyto13-att], the Kd was 160 µM in test [1] and 157 µM in test [2].
